We go through 12 molecules from patent US20250051454A1 (DUKE UNIVERSITY, published 2025).

For assay [1], the target named is T1, HLA-E-RL9HIV single chain trimer on transfected 293T cells (human, UniProt P61769 21-119; P13747 22-358).
T1 construct: also called control HLA-E-peptide complex
Briefly: flow cytometry, SCT-transfected 293T cells, MFI bar chart [E]. In general terms: In flow cytometry, cells or beads pass a laser one at a time.

Assay [2] deals with T2, HLA-E-RL9SIV single chain trimer on transfected 293T cells (human, UniProt P61769 21-119; P13747 22-358).
T2 construct: also called control HLA-E-peptide complex
Described as above.

B1: CA168 (antibody, V domains shown)
VH: QVQLVQSGAEVKKPGSSVKVSCKASGGTFSSYAISWVRQAPGQGLEWMGGIIPIFGTANYAQKFQGRVTITADKSTSTAYMELSSLRSEDTAVYYCARALTYYDFPDYGMDVWGQGTTVTVSS
VL: QSALTQPPSASGSPGQSVTISCTGTSSDVGGYNYVSWYQQHPGKVPKLMIYEVTKRPSGVPDRFSGSKSGNTASLTVSGLQAEDEADYYCSSYAGSNNLVFGGGTKLTVL
With B1, the binding result in assay [1] and in assay [2] was “no binding (tested: 2 µg/ml)” throughout.

B2: CA166 (antibody, V domains shown)
VH: EVQLVESGGGLVKPGGSLRLSCAASGFTFSSYSMNWVRQAPGKGLEWVSSISSSSSYIYYADSVKGRFTISRDNAKNSLYLQMNSLRAEDTAVYYCARVMITFGGADYWGQGTLVTVSS
VL: DIQMTQSPSSLSASVGDRVTITCRASQNINTYLNWYQKRPGIAPKLLIYGASSLQSGVPSRFSGSGSGTDFTLTISSLQPEDFATYYCQQYHTSPLTFGGGTPVDIK
Consider B2, for which the binding result in assay [1] and in assay [2] was “no binding (tested: 2 µg/ml)” throughout.

B3: CA170 (antibody, V domains shown)
VH: EVQLVESGGGLVKPGGSLRLSCAASGFTFSSYSMNWVRQAPGKGLEWVSSISSSSSYIYYADSVKGRFTISRDNAKNSLYLQMNSLRAEDTAVYYCARDRDLLDAFDIWGQGTMVTVSS
VL: SYVLTQPPSVSVAPGQTARITCGGNNIGSKSVHWYQQKPGQAPVLVVYDDSDRPSGIPERFSGSNSGNTATLTISRVEAGDEADYYCQVWDSSSDHPWVFGGGTKLTVL
In the case of B3, the binding result in assay [1] and in assay [2] was “no binding (tested: 2 µg/ml)” in each case.

B4: CA159 (antibody, V domains shown)
VH: QVQLVQSGAEVKKPGSSVKVSCKASGGTFSSYAISWVRQAPGQGLEWMGGIIPIFGTANYAQKFQGRVTITADESTSTAYMELSSLRSEDTAVYYCARASYYYYYMDVWGKGTTVTVSS
VL: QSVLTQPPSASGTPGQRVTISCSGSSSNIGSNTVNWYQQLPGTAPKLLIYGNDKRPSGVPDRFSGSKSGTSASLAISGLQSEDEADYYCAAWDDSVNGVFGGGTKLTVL
As to B4, the binding result in assay [1] and in assay [2] was “no binding (tested: 2 µg/ml)” in each case.

B5: CA176 (antibody, V domains shown)
VH: QVQLVESGGGVVQPGRSLRLSCAASGFTFSSYGMHWVRQAPGKGLEWVAVISYDGSNKYYADSVKGRFTISRDNSKNTLYLQMNSLRAEDTAVYYCAKDEGSSDFWSGYYASFDYWGQGTLVTVSS
VL: DIQMTQSPISLSASVGDRVTITCRASQDISNYLTWYQQKPGKAPKLLIYAASSLQSGVPSRFSGSGSGTDFTLTISNLQPEDFATYYCQQNYSYPCTFGQGTKVEIK
With B5, the binding result in assay [1] and in assay [2] was “no binding (tested: 2 µg/ml)” throughout.

B6: CA177 (antibody, V domains shown)
VH: QVQLQESGPGLVKPSETLSLTCTVSGGSISSYYWSWIRQPPGKGLEWIGYIYYSGSTNYNPSLKSRVTISVDTSKNQFSLKLSSVTAADTAVYYCASHDYTDHAAGYWGQGTLVTVSS
VL: not shown
For the molecule B6, the binding result in assay [1] and in assay [2] was “no binding (tested: 2 µg/ml)” each time.

B7: CA173 (antibody, V domains shown)
VH: EVQLVESGGGLVKPGGSLRLSCAASGFTFSSYSMNWVRQAPGEGLEWVSSISSSSTYIYYADSVKGRFTISRDNAKNSLYLQMNSLRAEDTAVYYCARDRPAGSSSLGSGYFDLWGRGTLVTVSS
VL: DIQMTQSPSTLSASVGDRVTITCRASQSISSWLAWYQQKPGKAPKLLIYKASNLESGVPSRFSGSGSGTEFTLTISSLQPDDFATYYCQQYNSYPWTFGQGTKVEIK
Regarding B7, the binding result in assay [1] and in assay [2] was “no binding (tested: 2 µg/ml)” in each case.

B8: CA169 (antibody, V domains shown)
VH: EVQLVESGGGLVKPGGSLRLSCAASGFTFSSYSMNWVRQAPGKGLEWVSSISSSSSYIYYADSVKGRFTISRDNAKNSLYLQMNSLRAEDTAVYYCASGVLLEAFDYWGQGTLVTVSS
VL: SYVLTQPPSVSVAPGQTARITCGGNNIGSKSVHWYQQKPGQAPVLVVYDDSDRPSGIPERFSGSNSGNTATLTISRVEAGDEADYYCQVWDSSSDHVVFGGGTKLTVL
Consider B8, for which the binding result in assay [1] and in assay [2] was “no binding (tested: 2 µg/ml)” each time.

B9: CA178 (antibody, V domains shown)
VH: QVQLVQSGAEVKKPGSSVKVSCKASGGTFSSYAISWVRQAPGQGLEWMGGIIPIFGTANYAQKFQGRVTITADESTSTAYMELSSLRSEDTAVYYCARDYGGSYYYEYFQHWGQGTLVTVSS
VL: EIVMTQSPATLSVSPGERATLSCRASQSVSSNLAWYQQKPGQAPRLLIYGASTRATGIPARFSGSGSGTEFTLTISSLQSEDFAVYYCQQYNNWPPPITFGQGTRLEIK
As for B9, the binding result in assay [1] and in assay [2] was “no binding (tested: 2 µg/ml)” each time.

B10: CA175 (antibody, V domains shown)
VH: EVQLVESGGGLVQPGGSLRLSCAASGFTFSTYPMNWVRQAPGKGLEWVSYISSSSSTIYYADCVKGRFTISRDNAKNSLYLQMNSLRDEDTAVYYCARYYIAYGMDVWGQGTTVTVSS
VL: DIQMTQSPSSMSASVGDRVTITCRASQGISNYLAWFQQKPGKAPKRLIYGASSLHRGVPSRFSGSGSGTEFTLTITSLQPEDFATYYCLQHNTYPRTFGQGTKVEIK
With B10, the binding result in assay [1] and in assay [2] was “no binding (tested: 2 µg/ml)” each time.

B11: CA180 (antibody, V domains shown)
VH: QVQLVQSGAEVKKPGASVKVSCKASGYTFTSYGISWVRQAPGQGLEWMGWISAYNGNTNYAQKLQGRVTMTTDTSTSTAYMELRSLRSDDTAVYYCARDLGYSSSWYTSNWFDPWGQGTLVTVSS
VL: QSALTQPASVSGSPGQSITISCTGTSSDVGSYNLVSWYQQHPGKAPKLMIYEGSKRPSGVSNRFSGSKSGNTASLTISGLQAEDEADYYCCSYAGSSTVVFGGGTKLTVL
Take B11: the binding result in assay [1] and in assay [2] was “no binding (tested: 2 µg/ml)” each time.

B12: CA162 (antibody, V domains shown)
VH: QVQLVESGGGLVKPGGSLRLSCAASGFTFSDYYMSWIRQAPGKGLEWVSYISSSSSYTNYADSVKGRFTISRDNAKNSLYLQMNSLRAEDTAVYYCARGRTMFKNYYDSSGYYGYFDYWGQGTLVTVSS
VL: DIQMTQSPSSVSASVGDRVTITCRASQGISSWLAWYQQKPGKAPKLLIYAASSLQSGVPSRFSGSGSGTDFTLTISSLQPEDFATYYCQQANSPLTFGGGTKVEIK
Consider B12, for which the binding result in assay [1] and in assay [2] was “no binding (tested: 2 µg/ml)” in each case.
